From the supplement of paper PMC12042874 come the findings set out here.

± gives the uncertainty stated by the source.

The data set in a line: amyloid nucleation score (Sup35N fusion, yeast selection) (log enrichment); library NNK1; higher = more nucleation; inactive = no reads after selection. The method in brief: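 Psi-negative yeast expressed Sup35N fused to peptides of 20 random codons. They were induced 24 hours with 100 μM copper sulfate, grown 7 days at 30°C without adenine and uracil, and their plasmid inserts from input and output were Illumina-sequenced. The nucleation score is the DiMSum log enrichment of output over input reads, centred on the mode score of non-aggregating sequences. Sequences with under 100 input reads were excluded.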

In the case of IFAVHMLYSECTGSFRYHWS, the amyloid nucleation score is 0.055 ± 0.79.
KSYNWDYGHLRVNYGGHMMI gave an amyloid nucleation score of -0.544 ± 1.4.
RGCVGRSFSDEES yielded an amyloid nucleation score of -1.22 ± 1.5.
In the case of ESTSYCKSDYLVRFVFEDGL it was -0.294 ± 0.39; in that of SMFGFTYIVGRMDGSIGWSL, 0.647 ± 0.22; in that of TCRVEMPSCCCFSGIVGCDR, 3.53 ± 0.067.
In the case of DYSVYRSERMCTLRAS it was -0.279 ± 0.36; in that of VTGWFYAGILYAFLYSQVLF, 0.171 ± 1.2; in that of YWHDVI, 0.104 ± 1.
Substance RAIMRKIYYHVMMIWI displayed an amyloid nucleation score of 0.153 ± 0.41.
Regarding MPAMTMMWQ, the amyloid nucleation score worked out at 0.415 ± 0.4.
In the case of NVIYFNVLVAPLHIPMLDLG it was 3.75 ± 0.14; in that of GSHYP, 0.586 ± 0.56; in that of HIKASDFIW, -0.333 ± 0.31.
In the case of ITGFAPVRVVCEYLS it was 0.182 ± 0.6; in that of SCWPCQ, -1.09 ± 2.4.
In the case of MFVSLSSFSYLGKTLLVFFV it was “inactive”.
GFNIDT had an amyloid nucleation score of 0.689 ± 1.2.
In the case of NEEGVIQSFILVDALVVQGL it was 0.391 ± 0.39; in that of RRENIP, 0.01 ± 0.42; in that of LFMLSIHFGVHILSRLW, 1.57 ± 0.16.
In the case of TAKSFFRVHFSHWTRHSPSR it was 4.16 ± 0.14; in that of RDWLLTLVLTLSQGPTTCAT, 0.247 ± 1.4.
In turn, GVGWISKPNHLDTFITTS returned an amyloid nucleation score of 0.738 ± 0.35.
In the case of TYSVTFF it was 0.231 ± 0.4.
Regarding IEDFEKGISVRVVTLWSWVV, the amyloid nucleation score was -0.93 ± 0.39.
Consider RTICKVIFVSEVKSLFWNMS, for which the amyloid nucleation score amounted to 1.87 ± 0.41.
In the case of LNVNRWYTISL it was 0.972 ± 0.25; in that of YSEFRDSLRSGIPLVPFVIQ, 0.066 ± 0.88.
In the case of FAYGI it was -0.633 ± 0.62.
In the case of RRLTRIIKAKL it was 0.018 ± 0.78; in that of GKGWYTDSMCRIRMMNARLL, 0.233 ± 0.34; in that of ALPAMTQDKWHMNALRNYLD, 1.48 ± 0.81.
Consider RSVYFIYTWIWQVSAVIFLC, for which the amyloid nucleation score stood at 0.107 ± 0.2.
In the case of TCSLNLYLDSDVFLCLCCLW it was 5.65 ± 0.074.
In the case of RVRSSMCGALWARKFYRTHI it was -0.116 ± 0.49; in that of SLLCWKLAVHQLGMIGNIYS, -0.452 ± 0.47.
In the case of NGYRNMSRREQTCLR it was -0.055 ± 0.36; in that of VIFDNGRLIEHCYERLTRPW, -0.327 ± 0.61; in that of YHLTQYDTMLLQYMWNHDWD, -0.707 ± 0.89.
For FNVALFMEI, the amyloid nucleation score came to 1.07 ± 0.27.
In the case of GVNLRSNRESSVCDNWRGLR it was 0.423 ± 0.42.
WEKFIVAQIMVGHFGWVFQT: the amyloid nucleation score was determined as 5.36 ± 0.078.
In the case of EGMYC it was 0.058 ± 0.34.
In the case of DNDSWYKYPCFWLCYFPACN it was 5.17 ± 0.052; in that of TCLHYAVCMRSLVSQSALFV, -0.771 ± 1.7; in that of FHYWFIIKVPTWMVYRDLTA, -0.203 ± 0.34.
In the case of YLLYEVSVLNYRPL it was -0.285 ± 0.32.
ASHLIYCFEARASLILL: the amyloid nucleation score came out at 0.686 ± 1.1.
In the case of GSYLCLMTFFSLYEQHSCCC it was “inactive”; in that of FLDASVDKSLSYPGHIVAFR, -1.57 ± 1.7; in that of GDSWRSYLRILGTYMVRRWC, 0.244 ± 0.54.
In the case of YNSRGDCRTLVKRGMGNFCA it was 0.191 ± 0.32.
In the case of PPHLLFCYNMVLTWWLYAFA it was 0.088 ± 1.2; in that of PNIEPCLSSFVSKSLDDPRT, -0.127 ± 0.37.
VVVVMRR yielded an amyloid nucleation score of 1.94 ± 0.23.
SPIMEKACVD returned an amyloid nucleation score of -0.053 ± 1.6.
In the case of HSCRMYYSQRIYIPSNDGSD it was 1.68 ± 0.29; in that of LTGSISD, 1.17 ± 0.73; in that of LLKVQGF, 1.13 ± 0.51.
In the case of YSYNYGWTVAEELYNRCIGA it was 0.266 ± 0.36.
In the case of LPPARIFEGRSICYFVWYLP it was 0.232 ± 0.7.
Substance LKYPMGFPDRSL displayed an amyloid nucleation score of -0.658 ± 1.1.
In the case of LFNMFDQITCIVDSDNYRHA it was 0.116 ± 0.25; in that of SYSKGGMSPFWWTTHRCDIM, 2.09 ± 0.35; in that of RVNTCMSRGRA, -0.367 ± 0.61.
On to KYGEVLLVTYTNP, for which the amyloid nucleation score is 0.577 ± 0.53.
In the case of KVLNVCRL it was “inactive”; in that of SMWKWDQKGKDNGTKNNKRL, -0.939 ± 0.8; in that of MVVYFNLPAVMLIDCMMSAI, 0.708 ± 0.62.
In the case of PCYAVYITAPINV it was 5.94 ± 0.093; in that of IFNML, -0.083 ± 0.93; in that of KNPLVIKKRF, 0.204 ± 0.59.
In the case of LLNLYWFLSVPDTINLSHER it was 8.087 ± 0.05.
The substance SCWVDSDHLNCFIYFTFVNT returned an amyloid nucleation score of -1.27 ± 2.7.
On to LWLRLRFVCKYRV, for which the amyloid nucleation score is 1.9 ± 0.59.
For the substance LGISPVSTGKKVNEDVYSGF, the amyloid nucleation score was determined as 0.618 ± 0.79.
In the case of FPCLTSSTSGYWSLI it was 1.32 ± 0.12.
In the case of PWADVR it was 0.721 ± 0.38; in that of TFVSL, 0.332 ± 0.49; in that of DVSRQFYFDYYNIKGLNITK, 0.536 ± 0.79.
With FHGSGESVNTDTMLTLYISV, the amyloid nucleation score was -0.157 ± 0.54.
In the case of VKVCHSPKTSYDTVISRGNL it was 0.459 ± 0.44.
In the case of PIVLWTIIPNTFKS it was 1.25 ± 0.17.
In the case of LLDMNANECYLPIWWQSEVT it was 0.092 ± 0.96.
Substance RYDTNMFFSCCT returned an amyloid nucleation score of 5.591 ± 0.054.
Substance CFQVYICVVDSDYRNFLWDA showed an amyloid nucleation score of 3.73 ± 0.077.
In the case of SNPSVNRHFVSSRGWLGKSN it was -0.422 ± 1.4; in that of IWGNVSLIRGFCPVKLWSQR, -0.082 ± 0.46; in that of FRQPGYMCEIRVVGFGPKPL, -0.274 ± 0.9.
The substance QKGLDVVWYDTRSDMYNKIL returned an amyloid nucleation score of -0.569 ± 0.7.
In the case of MRLSCLRRWGSTSVSTG it was -0.305 ± 0.36; in that of CSGNLVMVLSAACAKVGYLV, -1.48 ± 1.7.
In the case of RQVRMGFPGFWFMVIDYCRS it was 0.499 ± 0.39; in that of SWCLKDMSNMLLASIRRFVL, “inactive”; in that of PTKSIMLFCLGLFCGYLARA, 2.91 ± 0.093.
Substance TCFMNVSTQFCMSYKAQRSV came in with an amyloid nucleation score of 0.11 ± 0.59.
On to IKFRCYLCG, for which the amyloid nucleation score came out at 0.44 ± 0.9.
As to RYEMSVHGV, the amyloid nucleation score was found to be 0.391 ± 0.66.
In the case of SDVLGMSQAIGASTSVAEVV it was “inactive”.
In the case of LVFKLLVLDHKSFGLLMVDS it was -0.355 ± 0.63; in that of VSRLEVPRFLCTLQSTLLSS, -0.123 ± 0.86; in that of WNNVSCIELSSVSWNPDEVG, -0.302 ± 0.3.
In the case of PVVCYTVAFVTGSTDVV it was -0.139 ± 1.3; in that of MMYDGIVSR, -0.184 ± 0.31.
With SSYDWCWSHVCFK, the amyloid nucleation score was determined as 0.8 ± 0.38.
In the case of INIAMVMPLDGKLIQIDDTC it was 0.177 ± 0.31; in that of LEDNMEFDFKSRKDSNLCNG, 0.611 ± 0.34.
In the case of HSDFQDFMTDFGHDAFFKDW it was 0.096 ± 0.4; in that of IISTWSYGSES, 2.43 ± 0.14; in that of YINVLVKAHGMMVPRRLKWV, 0.086 ± 0.32.
In the case of HCLSFMIFESNLIIFMNRIR it was 0.222 ± 0.2; in that of GRVFAVSYFVRAGLVNEG, 0.082 ± 0.7.
In the case of RFSRVFIRLMGDVALSSGLL, the amyloid nucleation score was 0.532 ± 0.53.
In the case of VMYEVVHVNDDRCEAWLLSR, the amyloid nucleation score is -0.018 ± 1.5.
In the case of RDSAL it was 0.274 ± 0.4; in that of CNISAITRFTEIWSRVTSVF, 1.59 ± 0.8.
In the case of KPKCNHRDRTSLEILRNNAL it was 1.35 ± 0.43; in that of STFMSILTSESTMRNGITNR, “inactive”; in that of GRHRMVWGH, 0.345 ± 0.93.
In the case of GSWCSRIK it was 0.958 ± 0.35.
VCRLGSNPVQWVGPGSSVFC: the amyloid nucleation score was 1.23 ± 0.71.
In the case of QHVMPWPWWMGLSSLDRWYL it was 1.44 ± 0.49.
Consider EVGHFRSDVDLFWV, for which the amyloid nucleation score was -1.04 ± 0.44.
In the case of TSNYAGAISFANSNILLFFV it was 3.64 ± 0.14; in that of DHGFLGE, -0.172 ± 0.76.
In the case of AFTPSWRTRLQMTTL it was -0.386 ± 0.57; in that of YRNLGGLLGIELINIMLLLW, -0.429 ± 0.93.
In the case of AVSMWLPNDLAMIRSYIGYY it was -0.475 ± 0.52; in that of MKSFSMLPYIIVFRYY, 0.823 ± 0.85.
Consider QKYPSWINFPYF, for which the amyloid nucleation score is -0.935 ± 0.97.
In the case of IFSENRDVGNVFSVGQIVIF it was 3.72 ± 0.079; in that of HATMVSALLVWGW, -0.286 ± 1.9; in that of YSRTNMFQ, -0.649 ± 0.5.
PYFDTEHERVKDH showed an amyloid nucleation score of 0.398 ± 0.62.
In the case of MFNRWDIHFIGNNNLYGICV it was 0.613 ± 0.26.
Consider YGGNL, for which the amyloid nucleation score amounted to 0.169 ± 0.52.
In the case of LWFLIFSSKADAKVDRRILL it was 0.041 ± 0.47; in that of SSWLC, 1.4 ± 0.47; in that of QYSGYNRRDDSFPSWGCLLT, “inactive”.
Regarding SFTWRQNQVGNA, the amyloid nucleation score was 1.24 ± 0.4.
In the case of HVVVHDGSTQLWDARVRKWP it was 0.558 ± 0.64.
